Target: T1, TON_1525 wild-type (putative transcriptional regulator) (Thermococcus onnurineus NA1) (UniProt B6YTS4)
T1 sequence: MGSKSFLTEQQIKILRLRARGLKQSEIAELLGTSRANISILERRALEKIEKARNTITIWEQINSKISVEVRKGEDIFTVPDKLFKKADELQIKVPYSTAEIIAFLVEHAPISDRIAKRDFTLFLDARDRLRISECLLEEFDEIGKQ
Test: EMSA
Conditions: EMSA: 100 nM DNA, 20 mM Tris-HCl, 200 mM KCl, 1 mM EDTA, 5% glycerol, pH 7.5, 80 C for 10 min; 5% native PAGE

Question: Which binding does the source give for “GAGAGTTTTACTGTCTCTAAATGAAAGGTTCTAATACGGTGGATCGAATAATTTCTTGCGTTTTTATCCGGATCGCCGAACACGATTCCATCTTAAAATCTTTTTGTTTACATTATACGAGGTGATCAACAATGCCAGCTTTTTCCGGTT (double strand) [CODH promoter 150-bp probe]” here?
Answer: binds

Source: article PMC4791640
